Test results published in patent US7285703B2, “Plant like starches and the method of making them in hosts” (BASF Plant Science GmbH, priority 1998, dated 2007).

What was measured:
[1] = substrate: Nc1ncnc2c1ncn2[C@@H]1O[C@H](COP(=O)(O)OP(=O)(O)O[C@H]2O[C@H](CO)[C@@H](O)[C@H](O)[C@H]2O)[C@@H](O)[C@H]1O; test: ADPGlc kinetics of starch synthase SSIIb-1; assay type: biochemical, maize; conditions: 37° C.
[2] = substrate: Nc1ncnc2c1ncn2[C@@H]1O[C@H](COP(=O)(O)OP(=O)(O)O[C@H]2O[C@H](CO)[C@@H](O)[C@H](O)[C@H]2O)[C@@H](O)[C@H]1O; test: ADPGlc kinetics of starch synthase SSI-1; assay type: biochemical, maize; conditions: other: −citrate, 5 mg/ml amylopectin as primer, 37° C.
Description: (§1) FIG. 58. SSI-1, SSI-2, and SSI-3 construct design. Three forms of SSI were constructed in the pET expression (see Methods). pExs10a encodes SSI-1, the full length maize SSI (583 amino acids) which has the N-terminal sequence CVAELSREGP (SEQ ID NO:64). pExs8 encodes a truncated SSI, SSI-2, with amino acids # 8-52 deleted from the N-terminus of SSI-1 and which has the N-terminal sequence CVAELSR/DLG (SEQ ID NO:65). pExs1d encodes the most truncated form of SSI, SSI-3, with the first 93 amino acids deleted from SSI-1 and which has the N-terminal sequence SIVFVTGE (SEQ ID NO:66). A depiction of the waxygene, encoding GBSS, which has the N-terminal sequence ASAGMNW (SEQ ID NO:67), is also included for comparison. The amino acid motif KS/TGGL (SEQ ID NO:9), the putative binding site for ADGPGlc, in indicated by the triangles. The KS/TGGL (SEQ ID NO:9) motif is located 18 amino acids from the N-terminus in GBSS, while the motif is 106 amino acids from the N-terminus in maize SSI. Drawing not to scale.
(§2) 5 mL of supernatant were used to assay STS and SBE activities as previously described (Preiss) with minor modification. […] The unincorporated [^14C]-ADPGlc was separated with Dowex anion exchange column (200-400 mesh, Sigma Chemical Co.). […] SBE activity was determined by phosphorylase stimulation assay. One unit of activity is defined as 1 mmol Glc incorporated into the a-glucan per min at. […]

[3] = substrate: Nc1ncnc2c1ncn2[C@@H]1O[C@H](COP(=O)(O)OP(=O)(O)O[C@H]2O[C@H](CO)[C@@H](O)[C@H](O)[C@H]2O)[C@@H](O)[C@H]1O; test: purified protein, by the assay type; conditions: other: −citrate, 5 mg/ml amylopectin as primer, 37° C.
Description: (SEQ ID NO:64). pExs8 encodes a truncated SSI, SSI-2, with amino acids # 8-52 deleted from the N-terminus of SSI-1 and which has the N-terminal sequence CVAELSR/DLG (SEQ ID NO:65). pExs1d encodes the most truncated form of SSI, SSI-3, with the first 93 amino acids deleted from SSI-1 and which has the N-terminal sequence [sequence]
5 mL of supernatant were used to assay STS and SBE activities as previously described (Preiss) with minor modification. The reaction mixture for STS contained 100 mM Bicine buffer, 10 mg/mL glycogen, 0.5 mg/mL BSA, 0.5 M sodium citrate, 25 mM potassium acetate, 10 mM GSH, 3 mM [^14C]-ADPGlc (500 dpm/nmol) and enzyme in a final volume of 0.1 mL. The reaction was carried out at 25° C. for 15 min and terminated by boiling for 2 min. The unincorporated [^14C]-ADPGlc was separated with Dowex anion exchange column (200-400 mesh, Sigma Chemical Co.). One unit of activity is defined as 1 nmol Glc incorporated into the a-glucan per min at 25° C.
For the recombinant SS purification, the cell pellet was resuspended in sonication buffer (50 mM Tris-acetate, pH 7.5, 10 mM EDTA, and 5 mMDTT; 7 ml buffer per gram of cell mass), and cells were lysed using a Fisher 550 Sonic Dismembrator with 5×1 min. bursts with 30 sec. intervals. The homogenate was centrifuged at 9600 g for 30 minutes. SSI in the supernatant was then precipitated by slowly adding neutralized saturated ammonium sulfate to 40% saturation. After stirring on ice for an additional 50 minutes, proteins were collected by centrifugation at 12500 g for 45 minutes. The protein pellet was then redissolved in buffer A (50 mM Tris, pH 5.5, 1 mM EDTA, and 5 mM DTT) containing 0.1 M KCl and dialyzed against the same buffer, with one change of buffer. After dialysis, the sample was centrifuged at 13000 g for 20 minutes to remove insoluble materials. The resulting supernatant was loaded onto amylase affinity column pre-equilibrated with dialysis buffer, and the flow through was collected. […]

[4] = substrate: Nc1ncnc2c1ncn2[C@@H]1O[C@H](COP(=O)(O)OP(=O)(O)O[C@H]2O[C@H](CO)[C@@H](O)[C@H](O)[C@H]2O)[C@@H](O)[C@H]1O; test: ADPGlc kinetics of starch synthase SSIIb-2; assay type: biochemical, maize; conditions: 37° C.
Description: FIG. 60. SSIIb-1 and SSIIb-2 construct diagram. Two forms of SSIIb were constructed in the pET expression system (see Methods). pExs9 encodes SSIIb-1 which has the N-terminal sequence GSVGAALRS (SEQ ID NO:70), the putative full-length maize SSIIb which has the N-terminal sequence AAAPAGEE (SEQ ID NO:2). […] A depiction of the waxy gene, encoding GBSS which has the N-terminal sequence ASAGMNVV (SEQ ID NO:67), is also included for comparison. The amino acid motif KTGGL (SEQ ID NO:10), the putative binding site for ADPGlc, is indicated by the triangles. The KTGGL (SEQ ID NO:10) motif is located 18 amino acids from the N-terminus in GBSS, while the motif is 158 amino acids from the N-terminus in maize SSIIb.
5 mL of supernatant were used to assay STS and SBE activities as previously described (Preiss) with minor modification. […] […] The unincorporated [^14C]-ADPGlc was separated with Dowex anion exchange column (200-400 mesh, Sigma Chemical Co.). […] SBE activity was determined by phosphorylase stimulation assay. One unit of activity is defined as 1 mmol Glc incorporated into the a-glucan per min at. 30° C.
For the recombinant SS purification, the cell pellet was resuspended in sonication buffer (50 mM Tris-acetate, pH 7.5, 10 mM EDTA, and 5 mMDTT; 7 ml buffer per gram of cell mass), and cells were lysed using a Fisher 550 Sonic Dismembrator with 5×1 min. bursts with 30 sec. intervals. The homogenate was centrifuged at 9600 g for 30 minutes. SSI in the supernatant was then precipitated by slowly adding neutralized saturated ammonium sulfate to 40% saturation. After stirring on ice for an additional 50 minutes, proteins were collected by centrifugation at 12500 g for 45 minutes. The protein pellet was then redissolved in buffer A (50 mM Tris, pH 5.5, 1 mM EDTA, and 5 mM DTT) containing 0.1 M KCl and dialyzed against the same buffer, with one change of buffer. After dialysis, the sample was centrifuged at 13000 g for 20 minutes to remove insoluble materials. The resulting supernatant was loaded onto […] pre-equilibrated with dialysis buffer, and the flow through was collected. The column was washed with 10 column volumes of buffer a containing 0.1 M KCl, and then with buffer A containing 0.5 M KCl and 0.5 M maltose, collecting fractions during both washes. The active fractions were pooled and dialyzed overnight against buffer A, with one change of buffer. The next day, the amylase column sample was filtered and applied to a mono Q 5/5 FPLC column (Pharmacia). After washing with buffer A, a 20 ml 0-0,4 M KCl gradient was employed. […]

[5] = substrate: Nc1ncnc2c1ncn2[C@@H]1O[C@H](COP(=O)(O)OP(=O)(O)O[C@H]2O[C@H](CO)[C@@H](O)[C@H](O)[C@H]2O)[C@@H](O)[C@H]1O; test: ADPGlc kinetics of starch synthase SSI-3; assay type: biochemical, maize; conditions: other: −citrate, 5 mg/ml amylopectin as primer, 37° C.
Description: as §1, §2

B1: maize starch synthase SSIIb-1, putative full-length SSIIb (637 amino acids), N-terminus … (SEQ ID NO:70) (Zea mays) (protein)
chain: AAAPAGGESEEAAKSSSSSQAGAVQGSTAKAVDSASPPNPLTSAPKQSQSAAMQNGTSGGSSASTAAPVSGPKADHPSAPVTKREIDASAVKPEPAGDDARPVESIGIAEPVDAKADAAPATDAAASAPYDREDNEPGPLAGPNVMNVVVVASECAPFCKTGGLGDVVGALPKALARRGHRVMVVIPRYGEYAEARDLGVRRRYKVAGQDSEVTYFHSYIDGVDFVFVEAPPFRHRHNNIYGGERLDILKRMILFCKAAVEVPWYAPCGGTVYGDGNLVFIANDWHTALLPVYLKAYYRDNGLMQYARSVLVIHNIAHQGRGPVDDFVNFDLPEHYIDHFKLYDNIGGDHSNVFAAGLKTADRVVTVSNGYMWELKTSEGGWGLHDIINQNDWKLQGIVNGIDMSEWNPAVDVHLHSDDYTNYTFETLDTGKRQCKAALQRQLGLQVRDDVPLIGFIGRLDHQKGVDIIADAIHWIAGQDVQLVMLGTGRADLEDMLRRFESEHSDKVRAWVGFSVPLAHRITAGADILLMPSRFEPCGLNQLYAMAYGTVPVVHAVGGLRDTVAPFDPFNDTGLGWTFDRAEANRMIDALSHCLTTYRNYKESWRACRARGMAEDLSWDHAAVLYEDVLVKAKYQW
notes: N-terminus printed as both … and AAAPAGEE
With B1 the Km ([1]; other: with amylopectin) was 400 ± 20 µM, the Vmax ([1]; other: with amylopectin) was 72.8 ± 2.8 μmol min^−1 mg^−1 protein and the Km ([1]; other: with glycogen) was 710 ± 10 µM. For the same protein, the Vmax ([1]; other: with glycogen) was 76.8 ± 3.2 μmol min^−1 mg^−1 protein.

B2: maize starch synthase SSI-1 (STSI-1), full length SSI (583 amino acids), N-terminus CVAELSREGP (SEQ ID NO:64) (Zea mays) (protein)
chain: CVAELSREGPAPRPLPPALLAPPLVPGFLAPPAEPTGEPASTPPPVPDAGLGDLGLEPEGIAEGSIDNTVVVASEQDSEIVVGKEQARAKVTQSIVFVTGEASPYAKSGGLGDVCGSLPVALAARGHRVMVVMPRYLNGTSDKNYANAFYTEKHIRIPCFGGEHEVTFFHEYRDSVDWVFVDHPSYHRPGNLYGDKFGAFGDNQFRYTLLCYAACEAPLILELGGYIYGQNCMFVVNDWHASLVPVLLAAKYRPYGVYKDSRSILVIHNLAHQGVEPASTYPDLGLPPEWYGALEWVFPEWARRHALDKGEAVNFLKGAVVTADRIVTVSKGYSWEVTTAEGGQGLNELLSSRKSVLNGIVNGIDINDWNPATDKCIPCHYSVDDLSGKAKCKGALQKELGLPIRPDVPLIGFIGRLDYQKGIDLIQLIIPDLMREDVQFVMLGSGDPELEDWMRSTESIFKDKFRGWVGFSVPVSHRITAGCDILLMPSRFEPCGLNQLYAMQYGTVPVVHATGGLRDTVENFNPFGENGEQGTGWAFAPLTTENMFVDIANCNIYIQGTQVLLGRANEARHVKRLHVGPCR
B2 showed a Km [2] of 240 ± 20 µM.

B3: maize starch synthase SSI-2 (STSI-2), N-terminally truncated SSI, amino acids 8-52 of SSI-1 deleted, N-terminus CVAELSR/DLG (SEQ ID NO:65) (Zea mays; DEL47-91) (protein)
chain: CVAELSRDLGLEPEGIAEGSIDNTVVVASEQDSEIVVGKEQARAKVTQSIVFVTGEASPYAKSGGLGDVCGSLPVALAARGHRVMVVMPRYLNGTSDKNYANAFYTEKHIRIPCFGGEHEVTFFHEYRDSVDWVFVDHPSYHRPGNLYGDKFGAFGDNQFRYTLLCYAACEAPLILELGGYIYGQNCMFVVNDWHASLVPVLLAAKYRPYGVYKDSRSILVIHNLAHQGVEPASTYPDLGLPPEWYGALEWVFPEWARRHALDKGEAVNFLKGAVVTADRIVTVSKGYSWEVTTAEGGQGLNELLSSRKSVLNGIVNGIDINDWNPATDKCIPCHYSVDDLSGKAKCKGALQKELGLPIRPDVPLIGFIGRLDYQKGIDLIQLIIPDLMREDVQFVMLGSGDPELEDWMRSTESIFKDKFRGWVGFSVPVSHRITAGCDILLMPSRFEPCGLNQLYAMQYGTVPVVHATGGLRDTVENFNPFGENGEQGTGWAFAPLTTENMFVDIANCNIYIQGTQVLLGRANEARHVKRLHVGPCR
For B3, the Km [3] was 250 ± 40 µM.

B4: maize starch synthase SSIIb-2, N-terminally truncated SSIIb, first 144 amino acids deleted (492 amino acids), N-terminus MNVVVVASE (SEQ ID NO:71) (Zea mays) (protein)
chain: MNVVVVASECAPFCKTGGLGDVVGALPKALARRGHRVMVVIPRYGEYAEARDLGVRRRYKVAGQDSEVTYFHSYIDGVDFVFVEAPPFRHRHNNIYGGERLDILKRMILFCKAAVEVPWYAPCGGTVYGDGNLVFIANDWHTALLPVYLKAYYRDNGLMQYARSVLVIHNIAHQGRGPVDDFVNFDLPEHYIDHFKLYDNIGGDHSNVFAAGLKTADRVVTVSNGYMWELKTSEGGWGLHDIINQNDWKLQGIVNGIDMSEWNPAVDVHLHSDDYTNYTFETLDTGKRQCKAALQRQLGLQVRDDVPLIGFIGRLDHQKGVDIIADAIHWIAGQDVQLVMLGTGRADLEDMLRRFESEHSDKVRAWVGFSVPLAHRITAGADILLMPSRFEPCGLNQLYAMAYGTVPVVHAVGGLRDTVAPFDPFNDTGLGWTFDRAEANRMIDALSHCLTTYRNYKESWRACRARGMAEDLSWDHAAVLYEDVLVKAKYQW
For B4, the Km ([4]; other: with amylopectin) was 320 ± 30 µM, the Vmax ([4]; other: with amylopectin) was 90.9 ± 4.2 μmol min^−1 mg^−1 protein and the Km ([4]; other: with glycogen) was 320 ± 40 µM. It also gave a Vmax ([4]; other: with glycogen) of 130 ± 6 μmol min^−1 mg^−1 protein.

B5: maize starch synthase SSI-3 (STSI-3), N-terminally truncated SSI, first 93 amino acids of SSI-1 deleted, N-terminus SIVFVTGE (SEQ ID NO:66) (Zea mays) (protein)
chain: SIVFVTGEASPYAKSGGLGDVCGSLPVALAARGHRVMVVMPRYLNGTSDKNYANAFYTEKHIRIPCFGGEHEVTFFHEYRDSVDWVFVDHPSYHRPGNLYGDKFGAFGDNQFRYTLLCYAACEAPLILELGGYIYGQNCMFVVNDWHASLVPVLLAAKYRPYGVYKDSRSILVIHNLAHQGVEPASTYPDLGLPPEWYGALEWVFPEWARRHALDKGEAVNFLKGAVVTADRIVTVSKGYSWEVTTAEGGQGLNELLSSRKSVLNGIVNGIDINDWNPATDKCIPCHYSVDDLSGKAKCKGALQKELGLPIRPDVPLIGFIGRLDYQKGIDLIQLIIPDLMREDVQFVMLGSGDPELEDWMRSTESIFKDKFRGWVGFSVPVSHRITAGCDILLMPSRFEPCGLNQLYAMQYGTVPVVHATGGLRDTVENFNPFGENGEQGTGWAFAPLTTENMFVDIANCNIYIQGTQVLLGRANEARHVKRLHVGPCR
For B5, the Km [5] was 620 ± 40 µM.
